According to patent publication US20170022281A1 (AbbVie / Abbott, published 2017):

T1: murine PRLR (Biacore antigen) (murine, UniProt Q08501 20-229, limits assumed)
T1 construct: also called muPRLR
T1 sequence (looked up): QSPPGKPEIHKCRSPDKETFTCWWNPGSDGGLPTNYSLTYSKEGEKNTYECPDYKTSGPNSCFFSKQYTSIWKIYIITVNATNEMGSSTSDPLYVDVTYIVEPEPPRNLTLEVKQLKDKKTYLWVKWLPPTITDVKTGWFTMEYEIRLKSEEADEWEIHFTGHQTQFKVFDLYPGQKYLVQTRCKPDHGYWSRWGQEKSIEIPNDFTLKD

T2: human PRLR (Biacore antigen) (human, UniProt P16471 25-234, limits assumed)
T2 construct: The construct injected over captured antibody is not described (a soluble form is likely); also called huPRLR
T2 sequence: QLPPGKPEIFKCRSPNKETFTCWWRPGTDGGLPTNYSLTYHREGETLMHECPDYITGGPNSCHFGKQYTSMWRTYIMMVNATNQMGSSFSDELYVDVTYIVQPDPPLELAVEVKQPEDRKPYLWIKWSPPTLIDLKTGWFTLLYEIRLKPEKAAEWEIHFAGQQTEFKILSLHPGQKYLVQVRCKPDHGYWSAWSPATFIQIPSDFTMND

T3: cyno PRLR (Biacore antigen) (cyno, UniProt A0A2K5WXK1 25-234)
T3 construct: also called cyPRLR
T3 sequence: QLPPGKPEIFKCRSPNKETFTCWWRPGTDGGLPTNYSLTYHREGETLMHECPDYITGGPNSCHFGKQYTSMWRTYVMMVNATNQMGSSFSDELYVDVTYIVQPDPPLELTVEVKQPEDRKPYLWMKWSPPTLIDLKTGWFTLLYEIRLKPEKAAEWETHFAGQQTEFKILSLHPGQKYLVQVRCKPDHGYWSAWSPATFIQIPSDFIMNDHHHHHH

T4: mouse PRLR on Baf3-mPRLR cells (mouse, UniProt Q08501 20-608)
T4 sequence (looked up): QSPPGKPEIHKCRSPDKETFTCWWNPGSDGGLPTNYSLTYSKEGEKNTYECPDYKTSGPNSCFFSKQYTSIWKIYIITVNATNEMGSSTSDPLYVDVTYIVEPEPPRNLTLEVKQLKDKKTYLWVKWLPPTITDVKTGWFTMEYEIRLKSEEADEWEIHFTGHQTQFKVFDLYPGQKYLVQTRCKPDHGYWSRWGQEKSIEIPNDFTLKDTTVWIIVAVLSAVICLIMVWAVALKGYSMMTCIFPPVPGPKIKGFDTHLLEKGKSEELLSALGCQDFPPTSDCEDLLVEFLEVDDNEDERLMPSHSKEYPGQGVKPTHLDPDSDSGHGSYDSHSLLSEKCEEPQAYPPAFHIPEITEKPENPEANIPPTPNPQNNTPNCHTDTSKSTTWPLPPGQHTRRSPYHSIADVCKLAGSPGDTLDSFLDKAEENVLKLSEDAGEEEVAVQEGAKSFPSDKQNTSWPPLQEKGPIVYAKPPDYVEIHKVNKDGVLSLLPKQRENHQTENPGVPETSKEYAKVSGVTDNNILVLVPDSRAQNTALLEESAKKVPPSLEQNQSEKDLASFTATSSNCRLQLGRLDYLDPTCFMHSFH

T5: human PRLR on cells (human, UniProt P16471 25-622)
T5 sequence: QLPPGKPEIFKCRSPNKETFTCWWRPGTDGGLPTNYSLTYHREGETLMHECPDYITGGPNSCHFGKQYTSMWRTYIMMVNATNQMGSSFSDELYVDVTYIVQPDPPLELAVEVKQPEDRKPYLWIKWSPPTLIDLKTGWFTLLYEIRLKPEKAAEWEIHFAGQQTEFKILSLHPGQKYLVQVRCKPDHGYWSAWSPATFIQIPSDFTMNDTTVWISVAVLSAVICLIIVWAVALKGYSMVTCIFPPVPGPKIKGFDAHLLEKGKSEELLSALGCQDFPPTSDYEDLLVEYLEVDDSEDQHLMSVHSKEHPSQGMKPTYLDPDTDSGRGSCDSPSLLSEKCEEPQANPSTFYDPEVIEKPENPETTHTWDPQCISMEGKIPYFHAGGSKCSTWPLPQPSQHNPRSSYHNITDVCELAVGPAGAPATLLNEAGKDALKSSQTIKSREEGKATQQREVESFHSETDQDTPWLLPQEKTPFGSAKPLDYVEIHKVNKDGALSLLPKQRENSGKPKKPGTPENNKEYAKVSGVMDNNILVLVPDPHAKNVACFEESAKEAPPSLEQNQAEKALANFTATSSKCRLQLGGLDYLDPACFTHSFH

B1: Ab39 (antibody, human IgG1, kappa, V domains shown)
VH: EVQLVQSGAEVKKPGSSVKVSCKASGYTFTSYWIHWVRQAPGQGLEWIGEIDPSDSYTNYNQKFKGRATLTVDKSSSTAYMELSSLRSEDTAVYYCARSFFTNWFAYWGQGTLVTVSS
VL: DVVMTQTPLSLSVTPGQPASISCRSSQSLVHSNGNTYLHWYLQKPGQSPQLLIYKVSNRFSGVPDRFSGSGSGTDFTLKISRVEAEDVGVYFCSQSTHVPFTFGGGTKVEIKR
notes: humanized from Ab7; G1; also called Ab4 HC.1a and Ab4 LC.1a
B2: Ab40 (antibody, human IgG1, kappa)
heavy: not shown
light: DVVMTQTPLSLSVTPGQPASISCRSSQSLVHSNGNTYLHWYLQKPGQSPQLLIYKVSNRFSGVPDRFSGSGSGTDFTLKISRVEAEDVGVYYCSQSTHVPFTFGGGTKVEIKRTVAAPSVFIFPPSDEQLKSGTASVVCLLNNFYPREAKVQWKVDNALQSGNSQESVTEQDSKDSTYSLSSTLTLSKADYEKHKVYACEVTHQGLSSPVTKSFNRGEC
notes: humanized from Ab7; G1; also called Ab4 HC.1a and Ab4 LC.1b
B3: chAb6 (antibody, human IgG1, kappa, V domains shown)
VH: QVQLQQPGAELVMPGSSVKLSCKASGYTFTTYWMHWVKQRPGQGLEWIGEIDPSDSYSNYNQKFKDKATLTVDKSSSTAYMQLSSLTSEDSAVYYCARNGGLGPAWFSYWGQGTLVTVSA
VL: DIVMTQSQKFMSTTVGDRVSITCKASQYVGTAVAWYQQKPGQSPKLLIYSASNRYTGVPDRFTDSGSGTDFTLTISNLQSEDLADYFCQQYSSYPWTFGGGTKLEIKT
notes: chimeric, murine variable and human G1/kappa constant regions
B4: chAb8 (antibody, human IgG1, kappa, V domains shown)
VH: EVQLQQSGPELVKPGASVKISCKASGYTFTDYNIHWVKQSHGKSLEWIGYIYPNNDGTGYNQKFKSKATLTVDNSSSTAYMEVRSLTSEDSAVYYCARGDGNYVGDMDYWGQGTSVTVSS
VL: DIQMTQSPASLSASVGETVTITCRASENIYSYLAWYQQKQGKPPQLLVYNAKTLAEGVPSRFSGGGSGTQFSLKINSLQPEDFGSYYCQHHYATPFTFGSGTKLEIKT
notes: as for B3
B5: Ab49 (antibody, human IgG1, kappa, V domains shown)
VH: EVQLVQSGAEVKKPGASVKVSCKASGYTFTDYNIHWVRQAPGQGLEWIGYIYPNNDGTGYNQKFKSRATLTVDNSTSTAYMELRSLRSDDTAVYYCARGDGNYVGDMDYWGQGTTVTVSS
VL: DIQMTQSPSSLSASVGDRVTITCRASENIYSYLAWYQQKPGKAPKLLVYNAKTLAEGVPSRFSGSGSGTDFTLTISSLQPEDFATYYCQHHYATPFTFGQGTKLEIKR
notes: humanized from Ab8; G1; also called Ab3 HC.1a and Ab3 LC.1b
B6: Ab19 (antibody, human IgG1, kappa, V domains shown)
VH: EVQLVQSGAEVKKPGSSVKVSCKASGYTFTTYWMHWVRQAPGQGLEWIGEIDPSDSYSNYNQKFKDRATLTVDKSTSTAYMELSSLRSEDTAVYYCARNGGLGPAWFSYWGQGTLVTVSS
VL: DIQMTQSPSSVSASVGDRVTITCKASQYVGTAVAWYQQKPGKSPKLLIYSASNRYTGVPSRFSDSGSGTDFTLTISSLQPEDFATYFCQQYSSYPWTFGGGTKVEIKR
notes: humanized from Ab6; G1; also called Ab1 HC.1a and Ab1 LC.1a
B7: Ab21 (antibody, human IgG1, kappa, V domains shown)
VH: B6 VH
VL: EIVMTQSPATLSVSPGERATLSCKASQYVGTAVAWYQQKPGQSPRLLIYSASNRYTGVPARFSDSGSGTEFTLTISSLQSEDFAVYFCQQYSSYPWTFGGGTKVEIKR
notes: humanized from Ab6; G1; also called Ab1 HC.1a and Ab1 LC.2a

These binders were tested against T1, murine PRLR (Biacore antigen) (assay: SPR Biacore).
In short: (§1)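 Association rate, dissociation rate and dissociation constant were measured by surface plasmon resonance on a Biacore instrument. PRLR antigen was tested at 600 nM, 66.67 nM and 7.41 nM, a 3-point, 9-fold dilution series. Constants came from a 1:1 binding model fit (local Rmax, mass-transport term included) in Biacore T200 Evaluation Software.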

Binder	Kd	koff	kon
B1	742 nM	0.0427 s⁻¹	57600 M⁻¹ s⁻¹
B2	1190 nM	0.0534 s⁻¹	45000 M⁻¹ s⁻¹
B3	608 nM	0.36 s⁻¹	591000 M⁻¹ s⁻¹
B4	291 nM	0.0538 s⁻¹	185000 M⁻¹ s⁻¹

What follows are binders tested against T2, human PRLR (Biacore antigen) (assay: SPR Biacore).
In short: as §1

Binder	Kd	koff	kon
B1	4.25 nM	0.000715 s⁻¹	168000 M⁻¹ s⁻¹
B2	5.38 nM	0.000823 s⁻¹	153000 M⁻¹ s⁻¹
B5	0.214 nM	0.00012 s⁻¹	558000 M⁻¹ s⁻¹
B3	0.469 nM	0.000536 s⁻¹	1.14e+06 M⁻¹ s⁻¹
B4	0.183 nM	9.1e-05 s⁻¹	496000 M⁻¹ s⁻¹
B6	0.409 nM	0.000403 s⁻¹	985000 M⁻¹ s⁻¹
B7	0.554 nM	0.000586 s⁻¹	1.06e+06 M⁻¹ s⁻¹

These binders were tested against T3, cyno PRLR (Biacore antigen) (assay: SPR Biacore).
In short: as §1

Binder	Kd	koff	kon
B1	4.01 nM	0.000613 s⁻¹	153000 M⁻¹ s⁻¹
B2	5.38 nM	0.000719 s⁻¹	134000 M⁻¹ s⁻¹
B3	0.794 nM	0.00103 s⁻¹	1.3e+06 M⁻¹ s⁻¹
B4	3.44 nM	0.00177 s⁻¹	514000 M⁻¹ s⁻¹
B6	0.691 nM	0.000728 s⁻¹	1.05e+06 M⁻¹ s⁻¹

What follows are binders tested against cyno PRLR on Baf3-cyPRLR cells (cyno) (assay: cell-based or functional assay).

Binder	Baf3-cyPRLR proliferation IC50
B1	0.25 µg/mL
B2	0.32 µg/mL
B5	3.49 µg/mL
B3	12.2 µg/mL
B4	2.94 µg/mL
B6	0.13 µg/mL
B7	0.15 µg/mL

These binders were tested against T4, mouse PRLR on Baf3-mPRLR cells (assay: cell-based or functional assay).

Binder	Baf3-mPRLR proliferation IC50
B1	> 30 µg/mL
B2	> 30 µg/mL
B5	> 30 µg/mL
B6	> 30 µg/mL
B7	> 30 µg/mL

Each binder was assayed against T5, human PRLR on cells (assay: cell-based or functional assay).

Binder	Baf3-hPRLR proliferation IC50
B1	0.27 µg/mL
B2	0.4 µg/mL
B5	0.37 µg/mL
B3	0.28 µg/mL
B4	0.3 µg/mL
B6	0.12 µg/mL
B7	0.15 µg/mL

What follows are binders tested against T2, human PRLR (Biacore antigen) (assay: SPR simultaneous binding; PRLR held by surface mAb Ab40).
Protocol: (§2) Running buffer was HBS-EP+ (10 mM Hepes, pH7.4, 150 mM NaCl, 3 mM EDTA, 0.05% surfactant). Assay was performed at 12° C. using Biacore T200 and CM5 sensor chips with anti-human IgG (Pierce) amine-coupled in all 4 flow cells to ˜2000 RU.
(§3) Separate test mAbs were captured in flowcells 2, 3 & 4 (flowcell 1 was reference, no test mAb). All 4 flowcells were then blocked by injection with isotype control mAb at 50 ug/ml. All 4 flowcells were then injected with antigen or buffer only (buffer only is for double referencing, done for each mAb pair individually). All 4 flowcells were then injected with 2nd test mAb at 10 ug/ml. All 4 flowcells were then regenerated with glycine, pH1.5.

Binder	solution mAb binding, % of PRLR binding
B1	-2%
B2	-2%
B5	-3%
B3	-2%
B4	-2%
B6	-2%
B7	-2%

The binders below were run against T2, human PRLR (Biacore antigen) (assay: SPR simultaneous binding; PRLR held by surface mAb Ab19).
Protocol: as §2, §3

Binder	solution mAb binding, % of PRLR binding
B1	-1%
B2	-1%
B5	-1%
B3	-1%
B4	-1%
B6	-1%
B7	-1%
